Measurements as given in patent US20200353078A1 (AstraZeneca / MedImmune, published 2020).
Numbering of substitutions follows the chain as printed.

T1: Endogenous human IL-33 (human, UniProt O95760 1-270, limits assumed)
T1 sequence (looked up): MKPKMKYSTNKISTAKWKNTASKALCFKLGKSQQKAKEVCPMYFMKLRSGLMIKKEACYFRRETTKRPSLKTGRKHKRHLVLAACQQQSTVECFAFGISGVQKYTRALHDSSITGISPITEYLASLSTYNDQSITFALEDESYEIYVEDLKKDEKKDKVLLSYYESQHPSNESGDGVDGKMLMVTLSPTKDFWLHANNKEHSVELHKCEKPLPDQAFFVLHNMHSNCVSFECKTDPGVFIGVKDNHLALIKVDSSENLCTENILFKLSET

T2: Full-length human IL-33 (amino acids 1-270), HEK293-EBNA cell lysate (human, UniProt O95760 1-270)
T2 sequence (looked up): T1 sequence (looked up)

T3: His10/Avi Human IL33-01 (human)
T3 construct: Wild type mature IL-33 with N-terminal 10xHis, Avitag and Factor Xa site; biotinylated by BirA on the Avitag where used biotinylated; reduced form unless treated; also called N-terminal His Avi IL-33; His-Avi human IL-33 wild type
T3 chain: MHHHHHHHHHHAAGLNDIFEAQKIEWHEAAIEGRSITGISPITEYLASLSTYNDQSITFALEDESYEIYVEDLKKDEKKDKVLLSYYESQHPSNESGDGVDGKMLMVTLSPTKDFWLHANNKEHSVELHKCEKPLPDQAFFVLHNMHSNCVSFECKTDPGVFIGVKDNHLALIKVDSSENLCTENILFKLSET

T4: His10/Avi Cyno IL-33 (cynomolgus monkey)
T4 construct: also called Cynomolgus 10His Avitag IL-33; biotinylated His Avi cynomolgus IL-33
T4 chain: T3 chain with E77K, N94S, H118Q, M146R, H147S, S148F, S177Y, C182G, T183S, T193I

T5: Human IL-33 Flag®His (human)
T5 construct: Mature IL-33 with C-terminal FLAG 10xHis tag, from E. coli; biotinylated via free cysteines where used biotinylated; also called Mature Human IL-33_FH; human IL-33 FH
T5 chain: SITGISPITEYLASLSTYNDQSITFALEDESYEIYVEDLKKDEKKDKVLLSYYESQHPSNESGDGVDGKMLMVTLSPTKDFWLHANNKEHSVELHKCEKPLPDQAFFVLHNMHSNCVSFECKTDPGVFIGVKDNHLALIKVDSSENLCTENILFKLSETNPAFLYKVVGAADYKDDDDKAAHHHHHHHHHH

T6: Human IL-33 (Axxora/Adipogen AG-40B-0038) (human, UniProt O95760 112-270, limits assumed)
T6 construct: Bought; also called IL-33 (Adipogen); biotinylated human IL-33
T6 sequence (looked up): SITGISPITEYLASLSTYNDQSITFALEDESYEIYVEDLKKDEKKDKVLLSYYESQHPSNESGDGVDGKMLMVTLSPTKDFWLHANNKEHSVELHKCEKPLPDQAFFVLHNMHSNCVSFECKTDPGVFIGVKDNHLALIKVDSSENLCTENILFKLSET

B1: Cynomolgus IL-33 Flag®His (ligand)
chain: SITGISPITESLASLSTYNDQSITFALEDESYEIYVEDLKKDKKKDKVLLSYYESQHPSSESGDGVDGKMLMVTLSPTKDFWLQANNKEHSVELHKCEKPLPDQAFFVLHNRSFNCVSFECKTDPGVFIGVKDNHLALIKVDYSENLGSENILFKLSEINPAFLYKVVGAADYKDDDDKAAHHHHHHHHHH
notes: C-terminal FLAG 10xHis tag, E. coli; also called Mature Cynomolugus IL-33; cyno IL-33 FH
B2: 33_640050 IgG1 (antibody, V domains shown)
VH: EVQLLESGGGLVQPGGSLRLSCAASGFTFSSYAMSWVRQAPGKGLEWVSAISGSGGSTYYADSVKGRFTISRDNSKNTLYLQMNSLRAEDTAVYYCPRHKFMQLWGGGLRYPFGYWGQGTMVTVSS
VL: SYVLTQPPSVSVSPGQTASITCSGERMGDKYAAWYQQKPGQSPVLVIYQDTKRPSGIPERFSGSNSGNTATLTISGTQAMDEADYYCQVWDSSTGVFGGGTKVTVL
notes: IgG1; also called ZZ1F7Q-D10
B3: H338L293 (SEQ ID NOs 182 and 187) (antibody, V domains shown)
VH: EVQLLESGGGLVQPGGSLRLSCAASGFTFSSYAMSWVRQAPGKGLEWVSAISPREGWQYYADSVKGRFTISRDNSKNTLYLQMNSLRAEDTAVYYCVRVVAGYFDSWGRGTLVTVSS
VL: SYELMQPPSVSVSPGQTARITCSGDALPKQYAHWYQQKPGQAPVLVIYKDTERPSGIPERFSGSSSGTTVTLTISGVQAEDEADYYCMSSDPSGASRVFGGGTKLTVL
notes: IgG; also called H338L293_fgl; H338L293 IgG
B4: IL330259 IgG1 (antibody, V domains shown)
VH: B3 VH with I51S, S52T, R54W, E55Q, W57S, Q58T
VL: B3 VL with E3V, M5T, V44A, M88Q, S90A, P92S, L105V
notes: IgG1
B5: IL330004 IgG1 (antibody, V domains shown)
VH: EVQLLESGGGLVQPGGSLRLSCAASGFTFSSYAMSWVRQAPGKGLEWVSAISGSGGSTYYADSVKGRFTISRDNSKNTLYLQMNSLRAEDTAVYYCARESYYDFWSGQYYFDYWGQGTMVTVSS
VL: SYELTQPPSVSVSPGQTASISCSGDKLGDKFASWYQQKPGQSPVLIIYQDRKRPSGIPERFSGSNSGNTATLTISGTQTTDEADYYCQAWDGSLYVFGTGTKLTVL
notes: Human IgG1, lambda constant

How the values were obtained:
33_640087-7B IgG1 = target: T7, 33_640087-7B IgG1; experiment: HTRF: unlabelled test protein competes with biotinylated human IL33-01 for DyLight650 labelled 33_640087-7B IgG
T7 construct: IgG1
Protocol: Human, cyno and mouse IL-33 FLAG® His (described in Example 1 and Table 21), Human IL-1 alpha and IL-1 beta (R&D Systems) (Table 21) or rat IL-33 (GenScript) were tested for inhibition of human IL-33 binding to DyLight650 labelled 33_640087-7B or DyLight650 labelled 33_640237-2B by adding 5 microlitres of each dilution of sample to a 384 well low volume assay plate (Costar, 3673). […] This was followed by the addition of 2.5 microlitres of a solution containing 0.12 nM biotinylated human IL-33-01 combined with 0.75 nM streptavidin cryptate detection (Cisbio International, 610SAKLB). All dilutions were performed in assay buffer containing 0.8 M potassium fluoride (VWR, 26820.236) and 0.1% bovine serum albumin (BSA, PAA, K05-013) in Dulbeccos PBS (Invitrogen, 14190185). Assay plates were incubated for 4 hours at room temperature followed by 18 hours at 4 degrees Celsius and time resolved fluorescence was read at 620 nm and 665 nm emission wavelengths using an EnVision plate reader (Perkin Elmer). Data were analysed by calculating the 665/620 nm ratio followed by the % Delta F values for each sample. The 665/620 nm ratio was used to correct for sample interference using Equation 1. The % Delta F for each sample was then calculated using Equation 2. […] IC₅₀ values were determined using GraphPad Prism software by curve fitting using a four-parameter logistic equation (Equation 4).

33_640237-2B IgG1 = target: T8, 33_640237-2B IgG1; experiment: HTRF: unlabelled test protein competes with biotinylated human IL33-01 for DyLight650 labelled 33_640237-2B IgG
T8 construct: IgG1
Protocol: Human, cyno and mouse IL-33 FLAG® His (described in Example 1 and Table 21), Human IL-1 alpha and IL-1 beta (R&D Systems) (Table 21) or rat IL-33 (GenScript) were tested for inhibition of human IL-33 binding to DyLight650 labelled 33_640087-7B or DyLight650 labelled 33_640237-2B by adding 5 microlitres of each dilution of sample to a 384 well low volume assay plate (Costar, 3673). […] This was followed by the addition of 2.5 microlitres of a solution containing 0.12 nM biotinylated human IL-33-01 combined with 0.75 nM streptavidin cryptate detection (Cisbio International, 610SAKLB). All dilutions were performed in assay buffer containing 0.8 M potassium fluoride (VWR, 26820.236) and 0.1% bovine serum albumin (BSA, PAA, K05-013) in Dulbeccos PBS (Invitrogen, 14190185). Assay plates were incubated for 4 hours at room temperature followed by 18 hours at 4 degrees Celsius and time resolved fluorescence was read at 620 nm and 665 nm emission wavelengths using an EnVision plate reader (Perkin Elmer). Data were analysed by calculating the 665/620 nm ratio followed by the % Delta F values for each sample. The 665/620 nm ratio was used to correct for sample interference using Equation 1. The % Delta F for each sample was then calculated using Equation 2. The negative control (non-specific binding) was defined by replacing biotinylated human IL-33 combined with streptavidin cryptate detection with streptavidin cryptate detection only. The % Delta F values were subsequently used to calculate % specific binding as described in Equation 3. IC₅₀ values were determined using GraphPad Prism software by curve fitting using a four-parameter logistic equation (Equation 4).

Endogenous human IL-33 = target: T1, Endogenous human IL-33; experiment: cell-based or functional assay
[1] = target: T2, Full-length human IL-33 (amino acids …); experiment: cell-based or functional assay
His10/Avi Human IL33-01 [2] = target: T3, His10/Avi Human IL33-01; experiment: HTRF epitope competition, IgG titrated; competitor DyLight labelled 33_640117 IgG; 1 hour
Procedure, shortened: (§1)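 HTRF competition in which titrated IgG blocks binding of DyLight-labelled 33_640117 IgG (2.5 nM stock) to biotinylated IL-33 detected with streptavidin cryptate: human IL-33-01 at 0.12 nM with 0.75 nM cryptate, cyno IL-33 at 0.24 nM with 1.5 nM cryptate (solution concentrations). Fluorescence read after 1 h and overnight.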

His10/Avi Cyno IL-33 = target: T4, His10/Avi Cyno IL-33; experiment: as above
Procedure, shortened: as §1

His10/Avi Human IL33-01 [3] = target: T3, His10/Avi Human IL33-01; experiment: HTRF epitope competition, IgG titrated; competitor DyLight labelled 33_640117 IgG; overnight
Procedure, shortened: as §1

His10/Avi Human IL33-01 [4] = target: T3, His10/Avi Human IL33-01; experiment: HTRF competition: purified IgG against FLAG-His human ST2 for biotinylated IL33-01, overnight incubation
Human IL-33 Flag®His [5] = target: T5, Human IL-33 Flag®His; experiment: HTRF: IL-33FH binding to biotinylated ST2-Fc, IgG titrated, after 18 h pre-incubation of IgG with IL-33
[6] = target: T6, Human IL-33 (Axxora/Adipogen …); experiment: HTRF epitope competition: unlabelled IgG against DyLight labelled IL330101 IgG for biotinylated human IL-33
[7] = target: T6, Human IL-33 (Axxora/Adipogen …); experiment: cell-based or functional assay
Human IL-33 Flag®His [8] = target: T5, Human IL-33 Flag®His; experiment: cell-based or functional assay
Human IL-33 Flag®His [9] = target: T5, Human IL-33 Flag®His; experiment: HTRF competition, IgG titrated against biotinylated human ST2-Fc
Procedure, shortened: (§2)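 Antibody dilution series competed with biotinylated human ST2-Fc (added from a 4 nM mix with streptavidin-XL665) for IL-33 (added from a 1.2 nM mix with anti-FLAG cryptate). Buffer was DPBS with 0.8 M KF and 0.1% BSA. Incubation ran 2 h at RT then 16 h at 4 °C, with TRF read at 620/665 nm.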

[10] = target: B1; experiment: as above
Procedure, shortened: as §2

Human IL-33 Flag®His [11] = target: T5, Human IL-33 Flag®His; experiment: SPR BIAcore 2000, IgG captured on Protein G', IL-33 as analyte, 1:1 Langmuir
Protocol: (§3) The binding affinity of purified IgG samples of exemplary binding members to human and cynomolgus IL-33 was determined by surface plasmon resonance using BIAcore 2000 biosensor (BIAcore AB) essentially as described by Karlsson et al., J Immunol Methods 145(1-2):229-40 (1991). In brief, Protein G′ (Sigma Aldrich, P4689) was covalently coupled to the surface of a CM5 sensor chip using standard amine coupling reagents according to manufacturer's instructions (BIAcore). The protein G′ surface was used to capture purified anti-IL-33 antibodies via the Fc domain to provide a surface density of approximately 290 RU per cycle. Human or cynomolgus IL-33 prepared in HBS-EP buffer (BIAcore AB), at a range of concentrations, between 600 nM and 18.75 nM, were passed over the sensor chip surface. The surface was regenerated using two 10 mM Glycine washes of pH 1.7 and pH 1.5 between each injection of antibody. The resulting sensorgrams were evaluated using BIA evaluation 3.1 software and fitted to a 1:1 Langmuir binding model, to provide relative binding data. The binding results (KD, Ka, and Kd) for antibodies IL330002 and IL330004 binding to human or cynomolgus IL-33 are shown in Table 8.

[12] = target: B1; experiment: as above
Protocol: as §3

His10/Avi Human IL33-01 [13] = target: T3, His10/Avi Human IL33-01; experiment: HTRF competition: purified IgG against FLAG-His human ST2 for biotinylated IL33-01, 1 hour incubation

## B1
33_640087-7B IgG1
  IC50 (read off the curve): ~10 nM
33_640237-2B IgG1
  IC50 (read off the curve): ~200 nM

## B2
Endogenous human IL-33
  IC50, Huvec IL-8 release stimulated by human lung lysate: 0.032 nM
[1]
  IC50, Huvec IL-8 assay vs. full length IL-33 cell lysate: 0.32 nM
His10/Avi Human IL33-01 [2]
  IC50: 0.3 nM
His10/Avi Cyno IL-33
  IC50: 4.1 nM
His10/Avi Human IL33-01 [3]
  IC50: 1.5 nM
His10/Avi Human IL33-01 [4]
  IC50 (read off the curve): ~0.5 nM

## B3
Human IL-33 Flag®His [5]
  IC50 (read off the curve): ~30 nM

## B4
[6]
  IC50 (read off the curve): ~0.1 nM

## B5
[7]
  IC50, Huvec p65/RelA NFκB nuclear translocation: 12 nM
Human IL-33 Flag®His [8]
  IC50, human ST2 transfected HeLa NFkB luciferase reporter assay: 23 nM
Human IL-33 Flag®His [9]
  IC50: 9 nM
[10]
  IC50: 170 nM
Human IL-33 Flag®His [11]
  Kd: 6 nM
  koff: 0.0011 s⁻¹
  kon: 196000 M⁻¹ s⁻¹
[12]
  Kd: 365 nM
  koff: 0.00458 s⁻¹
  kon: 12500 M⁻¹ s⁻¹
His10/Avi Human IL33-01 [13]
  IC50 (read off the curve): ~1 nM
